T1: EsCas13d, nuclease-dead (Eubacterium siraeum, UniProt B0MS50, R295A;H300A;R849A;H854A)
T1 sequence: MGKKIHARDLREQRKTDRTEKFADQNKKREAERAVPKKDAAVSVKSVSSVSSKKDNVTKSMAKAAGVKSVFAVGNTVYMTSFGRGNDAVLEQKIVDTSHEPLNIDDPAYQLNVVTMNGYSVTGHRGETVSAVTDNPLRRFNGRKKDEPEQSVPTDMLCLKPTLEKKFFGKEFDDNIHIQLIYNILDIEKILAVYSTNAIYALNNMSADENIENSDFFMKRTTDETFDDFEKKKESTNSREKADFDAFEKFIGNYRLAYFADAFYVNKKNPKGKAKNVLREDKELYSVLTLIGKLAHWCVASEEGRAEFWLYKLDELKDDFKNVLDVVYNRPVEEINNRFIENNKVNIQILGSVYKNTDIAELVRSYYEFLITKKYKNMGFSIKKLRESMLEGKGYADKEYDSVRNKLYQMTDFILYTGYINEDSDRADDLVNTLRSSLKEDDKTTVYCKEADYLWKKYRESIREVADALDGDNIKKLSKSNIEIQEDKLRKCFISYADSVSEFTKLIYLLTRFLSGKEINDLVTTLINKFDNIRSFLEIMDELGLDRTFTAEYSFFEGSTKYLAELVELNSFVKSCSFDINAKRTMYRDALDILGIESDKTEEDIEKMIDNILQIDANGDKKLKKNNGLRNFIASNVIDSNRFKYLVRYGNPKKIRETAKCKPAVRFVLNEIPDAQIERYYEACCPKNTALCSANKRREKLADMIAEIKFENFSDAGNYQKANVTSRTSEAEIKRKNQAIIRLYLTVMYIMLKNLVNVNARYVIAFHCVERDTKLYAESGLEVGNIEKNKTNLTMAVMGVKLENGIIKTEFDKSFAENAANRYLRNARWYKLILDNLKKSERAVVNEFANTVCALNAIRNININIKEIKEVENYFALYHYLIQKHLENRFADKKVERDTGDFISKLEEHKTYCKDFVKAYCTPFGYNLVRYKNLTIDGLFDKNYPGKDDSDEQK


Molecular target: T1, EsCas13d, nuclease-dead
Experiment: crRNA (strand 1, pre-loaded); Mg2+; 40 mM Tris-HCl pH 7.5, 150 mM NaCl, 6 mM MgCl2, 1 mM DTT, 0.1% Tween-20, 0.2 mg/ml BSA; 25 C; 10 min per concentration, then washed
Settings: tags: His6-TwinStrep-SUMO cleaved; N-terminal SNAP kept (SNAP-Surface 488); label: 3' end held by stalled T7 RNA polymerase

| Binder | Kd [µM] |
| --- | --- |
| target 1 insU 3' of 18,insA 3' of 4 (mixed) RNA 1: CACCCGUGCAAAAAUGCAGGGGUCUAAAACUGAGCGGAUAACCUCUCUAUGG RNA 2: GGGAAUGGAUCCACAUCUACGAAUUCGUACCAUAUGAGAGGUUAUCCGCAUCACCGAGAUCGGAAGAGCACACGU | 0.0209 ± 0.0017 |
| target 1 insU 3' of 20,insG 3' of 7 (mixed) RNA 1: CACCCGUGCAAAAAUGCAGGGGUCUAAAACUGAGCGGAUAACCUCUCUAUGG RNA 2: GGGAAUGGAUCCACAUCUACGAAUUCGUACCAUUAGAGAGGUUAUCGCGCUCACCGAGAUCGGAAGAGCACACGU | 0.0118 ± 0.0006 |
| target 1 C6G,A20U (mixed) RNA 1: CACCCGUGCAAAAAUGCAGGGGUCUAAAACUGAGCGGAUAACCUCUCUAUGG RNA 2: GGGAAUGGAUCCACAUCUACGAAUUCGUACCUUAGAGAGGUUAUCGGCUCACCGAGAUCGGAAGAGCACACGU | 0.0405 ± 0.0025 |
| target 1 insG 3' of 9,insG 3' of 2 (mixed) RNA 1: CACCCGUGCAAAAAUGCAGGGGUCUAAAACUGAGCGGAUAACCUCUCUAUGG RNA 2: GGGAAUGGAUCCACAUCUACGAAUUCGUACCAUAGAGAGGUUAGUCCGCUCGACCGAGAUCGGAAGAGCACACGU | 0.0172 ± 0.001 |
| target 1 del5,del15 (mixed) RNA 1: CACCCGUGCAAAAAUGCAGGGGUCUAAAACUGAGCGGAUAACCUCUCUAUGG RNA 2: GGGAAUGGAUCCACAUCUACGAAUUCGUACCAUAGAAGGUUAUCCCUCACCGAGAUCGGAAGAGCACACGU | 0.0273 ± 0.0026 |
| target 1 A1U,G5U (mixed) RNA 1: CACCCGUGCAAAAAUGCAGGGGUCUAAAACUGAGCGGAUAACCUCUCUAUGG RNA 2: GGGAAUGGAUCCACAUCUACGAAUUCGUACCAUAGAGAGGUUAUCCUCUCUCCGAGAUCGGAAGAGCACACGU | 0.073 ± 0.011 |
| target 1 C2U,C22A (mixed) RNA 1: CACCCGUGCAAAAAUGCAGGGGUCUAAAACUGAGCGGAUAACCUCUCUAUGG RNA 2: GGGAAUGGAUCCACAUCUACGAAUUCGUAACAUAGAGAGGUUAUCCGCUUACCGAGAUCGGAAGAGCACACGU | 0.0162 ± 0.0012 |
| target 1 U10G,U11C (mixed) RNA 1: CACCCGUGCAAAAAUGCAGGGGUCUAAAACUGAGCGGAUAACCUCUCUAUGG RNA 2: GGGAAUGGAUCCACAUCUACGAAUUCGUACCAUAGAGAGGCGAUCCGCUCACCGAGAUCGGAAGAGCACACGU | 0.0141 ± 0.0006 |
| target 1 C7G,U19A (mixed) RNA 1: CACCCGUGCAAAAAUGCAGGGGUCUAAAACUGAGCGGAUAACCUCUCUAUGG RNA 2: GGGAAUGGAUCCACAUCUACGAAUUCGUACCAAAGAGAGGUUAUGCGCUCACCGAGAUCGGAAGAGCACACGU | 0.056 ± 0.009 |
| target 1 C6A,U19C (mixed) RNA 1: CACCCGUGCAAAAAUGCAGGGGUCUAAAACUGAGCGGAUAACCUCUCUAUGG RNA 2: GGGAAUGGAUCCACAUCUACGAAUUCGUACCACAGAGAGGUUAUCAGCUCACCGAGAUCGGAAGAGCACACGU | 0.0213 ± 0.0019 |
| target 1 insU 3' of 15,insG 3' of 4 (mixed) RNA 1: CACCCGUGCAAAAAUGCAGGGGUCUAAAACUGAGCGGAUAACCUCUCUAUGG RNA 2: GGGAAUGGAUCCACAUCUACGAAUUCGUACCAUAGAGUAGGUUAUCCGCGUCACCGAGAUCGGAAGAGCACACGU | 0.0135 ± 0.0013 |
| target 1 insU 3' of 14,insG 3' of 3 (mixed) RNA 1: CACCCGUGCAAAAAUGCAGGGGUCUAAAACUGAGCGGAUAACCUCUCUAUGG RNA 2: GGGAAUGGAUCCACAUCUACGAAUUCGUACCAUAGAGAUGGUUAUCCGCUGCACCGAGAUCGGAAGAGCACACGU | 0.034 ± 0.004 |
| target 1 insG 3' of 22,insA 3' of 19 (mixed) RNA 1: CACCCGUGCAAAAAUGCAGGGGUCUAAAACUGAGCGGAUAACCUCUCUAUGG RNA 2: GGGAAUGGAUCCACAUCUACGAAUUCGUACGCAUAAGAGAGGUUAUCCGCUCACCGAGAUCGGAAGAGCACACGU | 0.063 ± 0.01 |
| target 1 insC 3' of 16,insG 3' of 3 (mixed) RNA 1: CACCCGUGCAAAAAUGCAGGGGUCUAAAACUGAGCGGAUAACCUCUCUAUGG RNA 2: GGGAAUGGAUCCACAUCUACGAAUUCGUACCAUAGACGAGGUUAUCCGCUGCACCGAGAUCGGAAGAGCACACGU | 0.05 ± 0.008 |
| target 1 insG 3' of 19,insA 3' of 19 (mixed) RNA 1: CACCCGUGCAAAAAUGCAGGGGUCUAAAACUGAGCGGAUAACCUCUCUAUGG RNA 2: GGGAAUGGAUCCACAUCUACGAAUUCGUACCAUGAAGAGAGGUUAUCCGCUCACCGAGAUCGGAAGAGCACACGU | 0.05 ± 0.007 |
| target 1 C2U,U19G (mixed) RNA 1: CACCCGUGCAAAAAUGCAGGGGUCUAAAACUGAGCGGAUAACCUCUCUAUGG RNA 2: GGGAAUGGAUCCACAUCUACGAAUUCGUACCAGAGAGAGGUUAUCCGCUUACCGAGAUCGGAAGAGCACACGU | 0.052 ± 0.004 |
| target 1 insC 3' of 20,insU 3' of 14 (mixed) RNA 1: CACCCGUGCAAAAAUGCAGGGGUCUAAAACUGAGCGGAUAACCUCUCUAUGG RNA 2: GGGAAUGGAUCCACAUCUACGAAUUCGUACCACUAGAGAUGGUUAUCCGCUCACCGAGAUCGGAAGAGCACACGU | 0.0055 ± 0.0008 |
| target 1 C2A,U8C (mixed) RNA 1: CACCCGUGCAAAAAUGCAGGGGUCUAAAACUGAGCGGAUAACCUCUCUAUGG RNA 2: GGGAAUGGAUCCACAUCUACGAAUUCGUACCAUAGAGAGGUUACCCGCUAACCGAGAUCGGAAGAGCACACGU | 0.0052 ± 0.0004 |
| target 1 insA 3' of 8,insU 3' of 5 (mixed) RNA 1: CACCCGUGCAAAAAUGCAGGGGUCUAAAACUGAGCGGAUAACCUCUCUAUGG RNA 2: GGGAAUGGAUCCACAUCUACGAAUUCGUACCAUAGAGAGGUUAUACCGUCUCACCGAGAUCGGAAGAGCACACGU | 0.022 ± 0.0018 |
| target 1 del16,del19 (mixed) RNA 1: CACCCGUGCAAAAAUGCAGGGGUCUAAAACUGAGCGGAUAACCUCUCUAUGG RNA 2: GGGAAUGGAUCCACAUCUACGAAUUCGUACCAAGGAGGUUAUCCGCUCACCGAGAUCGGAAGAGCACACGU | 0.073 ± 0.02 |
| target 1 insC 3' of 22,insC 3' of 18 (mixed) RNA 1: CACCCGUGCAAAAAUGCAGGGGUCUAAAACUGAGCGGAUAACCUCUCUAUGG RNA 2: GGGAAUGGAUCCACAUCUACGAAUUCGUACCCAUACGAGAGGUUAUCCGCUCACCGAGAUCGGAAGAGCACACGU | 0.041 ± 0.016 |
| target 1 insU 3' of 20,insA 3' of 5 (mixed) RNA 1: CACCCGUGCAAAAAUGCAGGGGUCUAAAACUGAGCGGAUAACCUCUCUAUGG RNA 2: GGGAAUGGAUCCACAUCUACGAAUUCGUACCAUUAGAGAGGUUAUCCGACUCACCGAGAUCGGAAGAGCACACGU | 0.0122 ± 0.0009 |
| target 1 insG 3' of 8,insG 3' of 8 (mixed) RNA 1: CACCCGUGCAAAAAUGCAGGGGUCUAAAACUGAGCGGAUAACCUCUCUAUGG RNA 2: GGGAAUGGAUCCACAUCUACGAAUUCGUACCAUAGAGAGGUUAUGGCCGCUCACCGAGAUCGGAAGAGCACACGU | 0.0453 ± 0.0032 |
| target 1 C6A,A14C (mixed) RNA 1: CACCCGUGCAAAAAUGCAGGGGUCUAAAACUGAGCGGAUAACCUCUCUAUGG RNA 2: GGGAAUGGAUCCACAUCUACGAAUUCGUACCAUAGAGCGGUUAUCAGCUCACCGAGAUCGGAAGAGCACACGU | 0.0117 ± 0.0005 |
| target 1 insU 3' of 15,insG 3' of 9 (mixed) RNA 1: CACCCGUGCAAAAAUGCAGGGGUCUAAAACUGAGCGGAUAACCUCUCUAUGG RNA 2: GGGAAUGGAUCCACAUCUACGAAUUCGUACCAUAGAGUAGGUUAGUCCGCUCACCGAGAUCGGAAGAGCACACGU | 0.013 ± 0.0006 |
| target 1 C6A,A14U (mixed) RNA 1: CACCCGUGCAAAAAUGCAGGGGUCUAAAACUGAGCGGAUAACCUCUCUAUGG RNA 2: GGGAAUGGAUCCACAUCUACGAAUUCGUACCAUAGAGUGGUUAUCAGCUCACCGAGAUCGGAAGAGCACACGU | 0.054 ± 0.009 |
| target 1 C7A,C21U (mixed) RNA 1: CACCCGUGCAAAAAUGCAGGGGUCUAAAACUGAGCGGAUAACCUCUCUAUGG RNA 2: GGGAAUGGAUCCACAUCUACGAAUUCGUACUAUAGAGAGGUUAUACGCUCACCGAGAUCGGAAGAGCACACGU | 0.00656 ± 0.00031 |
| target 1 insC 3' of 13,insG 3' of 2 (mixed) RNA 1: CACCCGUGCAAAAAUGCAGGGGUCUAAAACUGAGCGGAUAACCUCUCUAUGG RNA 2: GGGAAUGGAUCCACAUCUACGAAUUCGUACCAUAGAGAGCGUUAUCCGCUCGACCGAGAUCGGAAGAGCACACGU | 0.0114 ± 0.0005 |

Source: paper PMC10786891, “Massively parallel profiling of RNA-targeting CRISPR-Cas13d”
